Square brackets hold non-standard residues; d marks the D form. cellulose membrane = cellulose membrane solid support, attached through a beta-alanine spacer; sY = N[C@@H](Cc1ccc(OS(=O)(=O)O)cc1)C(=O)O; βAla = NCCC(=O)O
T1: human PSGL-1 on cells (human, UniProt Q14242 42-412)
T1 construct: whole, on cells; One molecule is used for HL-60 cells, recombinant CHO cells and blood cells; The cell type is named in each entry; also called native PSGL-1 expressed on HL-60 cells; recombinant CHO cells expressing human PSGL-1
T1 sequence (looked up): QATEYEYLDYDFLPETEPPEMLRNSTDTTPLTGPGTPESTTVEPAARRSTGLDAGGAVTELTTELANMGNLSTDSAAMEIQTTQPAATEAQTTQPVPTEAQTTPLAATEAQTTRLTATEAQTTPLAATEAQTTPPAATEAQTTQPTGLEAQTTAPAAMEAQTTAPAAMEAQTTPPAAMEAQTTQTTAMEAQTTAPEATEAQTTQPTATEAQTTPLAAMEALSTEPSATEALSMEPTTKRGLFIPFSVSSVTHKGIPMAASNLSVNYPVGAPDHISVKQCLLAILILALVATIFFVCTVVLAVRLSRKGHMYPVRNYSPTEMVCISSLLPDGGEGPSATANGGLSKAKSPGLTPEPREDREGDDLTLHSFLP

T2: fully sulfated and glycosylated human PSGL-1 19.ek.Fc fusion protein (human, not fully specified; sulfated tyrosines (y in QATEyEyLDyDFLPETEPPRPMMDDDDK, corresponding to Tyr46, Tyr48 and Tyr51); SLe^x-capped O-glycan; biotinylated in the assays)
T2 construct: also called PSGL-19.ek.Fc; biotinylated PSGL-1 19.ek.Fc
T2 chain: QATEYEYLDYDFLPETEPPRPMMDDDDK

T3: peptide EYEYLDyDF (SEQ ID NO:45) (human)
T3 construct: Spot 55 of the peptide array; also called peptide 55
T3 peptide: Ac-EYEYLD[sY]DF-{βAla-cellulose membrane}

B1: PSG3 scFv (scFv)
scFv: QVQLVQSGAEVKKPGSSVRVSCKASGGSFSSYGIHWVQQAPGQGLEWMGRIIPVLRIRNYAQKFHDRVTIDADTSTGTAYMELSSLTSDDTAVYYCAGSRQGVAPTGYWGQGTMVTVSSGGGGSGGGGSGGGGSAQAVLTQPSSLSASPGASASLTCNLRSGIDVGTYRIYWYQQKPGSPPQYLLRYKSDSDKQQGSGVPSRFSGTKDASANAGILLISGLQSEDEADYYCMIWHSNGWVFGGGTKLTVLGAAAHHHHHH
notes: Human scFv from a phage display library, purified from E. coli periplasm on NiNTA and detected with anti-Myc; also called scFv PSG3
B2: PSG6 full-length bivalent antibody (human IgG4, lambda) (antibody, V domains shown)
VH: EVQLLESGGGLVRPGGSLRLSCAASGFTFSSYAMSWVRQAPGKGLEWVSAISGSGGSTYYADSVKGRFTISRDNSKNTLYLQMNSLRAEDTAVYYCARDKRLTYWGQGTMVTVSS
VL: QSVVTQPPSVSAAPGQKVTISCSGSSSNIGNNYVSWYQQLPGTAPKLLIYDNNKRPSGIPDRFSGSKSGTSATLGITGLQTGDEADYYCGTWDSSLSARVFGGGTKVTVLG
notes: also called human monoclonal antibody PSG6
B3: PSG3 full-length bivalent antibody (human IgG4, lambda) (antibody, V domains shown)
VH: QVQLVQSGAEVKKPGSSVRVSCKASGGSFSSYGIHWVQQAPGQGLEWMGRIIPVLRIRNYAQKFHDRVTIDADTSTGTAYMELSSLTSDDTAVYYCAGSRQGVAPTGYWGQGTMVTVSS
VL: QAVLTQPSSLSASPGASASLTCNLRSGIDVGTYRIYWYQQKPGSPPQYLLRYKSDSDKQQGSGVPSRFSGTKDASANAGILLISGLQSEDEADYYCMIWHSNGWVFGGGTKLTVLG
notes: also called full length PSG3; human monoclonal antibody PSG3
B4: PSG6 scFv (scFv)
scFv: EVQLLESGGGLVRPGGSLRLSCAASGFTFSSYAMSWVRQAPGKGLEWVSAISGSGGSTYYADSVKGRFTISRDNSKNTLYLQMNSLRAEDTAVYYCARDKRLTYWGQGTMVTVSSGGGGSGGGGSGGGGSAQSVVTQPPSVSAAPGQKVTISCSGSSSNIGNNYVSWYQQLPGTAPKLLIYDNNKRPSGIPDRFSGSKSGTSATLGITGLQTGDEADYYCGTWDSSLSARVFGGGTKVTVLGAAAHHHHHH
notes: Human scFv from a phage display library, purified on NiNTA and detected with anti-Myc; also called scFv PSG6

Tests used:
[1] = target: T1, human PSGL-1 on cells; experiment: FACS on HL-60 cells, scFv complexed with mouse anti-Myc, FITC secondary
Experimental: Characterization of the antibodies using FACS analysis. The binding specificity of the neutralizing antibodies was assessed by FACS analysis of HL-60 cells as well as in parent and recombinant CHO cells expressing human or rat PSGL-1 (data not shown). For FACS analysis, 0.5×10⁶ cells were incubated in 100 μL HBSS 2 mM CaCl₂, 1% fetal calf serum, NaN₃, containing 15 or 50 μg of the indicated scFvs complexed with 50 μg/ml mouse-anti-Myc-HRP (Roche Applied Sciences, Indianapolis, Ind.). The cells were washed and incubated with 1:100 anti-mouse FITC-conjugated secondary antibody (Roche Applied Sciences, Indianapolis, Ind.). Analysis was performed on viable cells of the mononuclear population with low forward and side scatter properties. As shown in FIG. 7(A) and FIG. 7(B), PSG3, PSG5, and PSG6 scFvs bind to native PSGL-1 expressed on HL-60 cells.

[2] = target: T2, fully sulfated and glycosylated human …; experiment: BIAcore 2000, biotinylated PSGL-1 19.ek.Fc on streptavidin chip, antibody injected at 0-100 nM
Experimental: Surface plasmon resonance binding analysis. A BIAcore 2000 instrument (BIAcore AB, Uppsala, Sweden) was used to analyze the interactions between the identified antibodies and biotinylated PSGL-1 19.ek.Fc or derived peptides. Binding experiments were performed at 25° C. using streptavidin-coated sensor chips (BIAcore) and HBS-P buffer (20 mM HEPES [pH 7.4], 150 mM NaCl and 0.005% polysorbate 20 v/v) adjusted to 1 mM for both CaCl₂ and MgCl₂. The streptavidin on the sensor surfaces were condition with three one-minute injections of a solution containing 1 M NaCl and 25 mM NaOH. The chips were regenerated with 5 μL of 0.1% TFA and equilibrated with running buffer. […] Binding kinetics were analyzed using BIAevaluation software (V2.1; Pharmacia Biosensor, Uppsala, Sweden). The response representing the mass of bound monoclonal antibodies was measured in resonance units (RU). […] Binding kinetics of human anti-PSGL-1 monoclonal antibodies to the immobilized PSGL-1 19.ek.Fc was determined under partial mass transport limitations by triplicate injections at a concentration range (0-100 nM) onto the immobilized biotinlylated PSGL-1 19.ek peptide at a flow rate of 30 μL/min, following injection for two minutes. Dissociation was monitored for ten minutes at the same flow rate.

[3] = target: T1, human PSGL-1 on cells; experiment: FACS on recombinant CHO cells expressing human PSGL-1 (data not shown)
[4] = target: T3, peptide EYEYLDyDF (SEQ ID NO:45); experiment: peptide spot array on cellulose membrane, HRP anti-Fc detection
Description: Epitope mapping of PSG3. Fmoc-protected amino acids and cellulose membranes modified with polyethylene glycol were purchased from Intavis. Fmoc-protected β-alanine was purchased from Chem-Impex (Wood Dale, Ill.). The arrays were defined on the membranes by coupling a β-alanine spacer, followed by elongation of the peptide chain. Peptides were synthesized using standard DIC/HOBt coupling chemistry as described previously. (See, e.g., Molina et al., Pept. Res. 9:151-155 (1996) and Frank et al., Tetrahedron 48:9217-9232 (1992)). Activated amino acids were spotted using an Abimed ASP 222 robot. Washing and deprotection steps were done manually and the peptides were N-terminally acetylated after the final synthesis cycle.
Following peptide synthesis and side chain deprotection, the membranes were washed in methanol for 10 minutes and in blocker (1% casein in TBS) for 10 minutes. The membranes were then incubated with 1 μg/mL of […] in TBS for 1 hour with gentle shaking. The membranes were washed 4 times for 2 minutes in TBS and then probed with an HRP-conjugated anti-Fc antibody in blocker. After washing with TBS, bound protein was visualized using SuperSignal West reagent (Pierce) and a digital camera (AlphaInnotech FluorImager). Signal intensity reflects the amount of protein bound at each spot.

Binder | binding result [1] | Ka [2] | binding result [3] | binding result [4]
B1 | binds | – | – | –
B2 | – | ~6e+08 M⁻¹ | binds | –
B3 | – | ~1.4e+09 M⁻¹ | binds | binds
B4 | binds | – | – | –
